Assay results taken from US20240368668A1, “SUBSTRATES AND BIOMARKERS OF ADAMTS7” (The Broad Institute, Inc., priority 2021, published 2024).
Square brackets hold non-standard residues; d marks the D form. Ends that are not written are not given here.

Target: T1, mouse ADAMTS7 (Mus musculus, UniProt Q68SA9, E373Q)
T1 construct: Full-length mouse Adamts7 1-1857 (Uniprot Q68SA9, WT or E373Q catalytic mutant); expressed in transfected cells; host or cells: Human Coronary Artery Smooth Muscle Cells (HCA-SMC, Lonza), adenovirus 50 MOI
T1 sequence (Q68SA9 221-1657 E373Q): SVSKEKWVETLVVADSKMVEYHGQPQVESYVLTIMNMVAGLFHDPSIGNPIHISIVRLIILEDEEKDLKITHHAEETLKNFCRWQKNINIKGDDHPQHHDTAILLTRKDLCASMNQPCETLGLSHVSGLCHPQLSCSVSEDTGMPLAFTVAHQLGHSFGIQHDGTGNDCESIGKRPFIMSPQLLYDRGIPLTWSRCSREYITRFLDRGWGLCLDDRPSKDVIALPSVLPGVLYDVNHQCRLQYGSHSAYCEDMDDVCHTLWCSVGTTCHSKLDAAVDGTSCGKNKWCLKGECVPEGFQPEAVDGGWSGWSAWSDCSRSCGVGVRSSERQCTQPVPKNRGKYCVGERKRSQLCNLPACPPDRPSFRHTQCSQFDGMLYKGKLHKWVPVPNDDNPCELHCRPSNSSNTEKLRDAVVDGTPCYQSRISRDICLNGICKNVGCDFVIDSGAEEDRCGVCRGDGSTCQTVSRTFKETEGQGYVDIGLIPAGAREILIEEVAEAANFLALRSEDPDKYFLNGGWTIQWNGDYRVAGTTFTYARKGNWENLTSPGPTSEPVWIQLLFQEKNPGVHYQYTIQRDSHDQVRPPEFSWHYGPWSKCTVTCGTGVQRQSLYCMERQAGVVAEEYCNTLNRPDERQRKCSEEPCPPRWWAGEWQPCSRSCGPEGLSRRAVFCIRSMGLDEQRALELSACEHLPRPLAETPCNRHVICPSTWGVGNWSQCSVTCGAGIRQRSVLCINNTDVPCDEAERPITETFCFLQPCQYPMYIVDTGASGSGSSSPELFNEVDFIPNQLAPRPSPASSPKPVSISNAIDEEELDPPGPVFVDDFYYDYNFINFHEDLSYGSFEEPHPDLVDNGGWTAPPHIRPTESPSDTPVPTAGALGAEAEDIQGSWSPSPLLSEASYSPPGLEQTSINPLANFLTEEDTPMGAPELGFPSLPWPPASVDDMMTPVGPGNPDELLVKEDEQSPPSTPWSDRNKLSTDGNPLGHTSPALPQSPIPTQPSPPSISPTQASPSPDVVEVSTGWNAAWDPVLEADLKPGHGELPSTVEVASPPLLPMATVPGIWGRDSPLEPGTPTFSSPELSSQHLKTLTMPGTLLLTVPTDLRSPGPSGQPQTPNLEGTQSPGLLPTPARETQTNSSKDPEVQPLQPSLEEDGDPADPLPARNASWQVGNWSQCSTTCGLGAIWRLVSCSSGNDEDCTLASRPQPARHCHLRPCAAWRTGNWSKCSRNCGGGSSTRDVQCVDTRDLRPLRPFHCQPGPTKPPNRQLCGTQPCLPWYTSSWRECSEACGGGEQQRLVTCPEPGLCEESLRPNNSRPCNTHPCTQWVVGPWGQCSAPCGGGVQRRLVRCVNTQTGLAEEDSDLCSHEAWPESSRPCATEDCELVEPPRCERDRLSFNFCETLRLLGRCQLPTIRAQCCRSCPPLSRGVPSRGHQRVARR
Test: TMT10 TAILS N-terminomics, SMC2 experiment (process replicates, trypsin/AspN digest)
Format: cell-based
Outline: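 Full-length mouse ADAMTS7 (WT or E373Q mutant, C-terminal 3xFLAG) or luciferase was transduced via adenovirus, 50 MOI, into HCA-SMC (SMC1, SMC2) or HUVEC. SMC1: pooled media, technical triplicates 400 ug; SMC2: process triplicates 300 ug; HUVEC: process triplicates 200 ug, bFGF2 10 ng/ml.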

[1] = SMC2_TAILS HC, log fold change, mEQ over Luc
[2] = log fold change, ADAMTS7 EQ over luciferase

Substance	logFC.mEQ.over.Luc [1]	logFC.mEQ.over.Luc [2]	further results
ADAM9_74 (GKEHIIHLER; listed as Homo sapiens)	−0.18	–	–
ADAM10_86 (FKVETSNKVL; listed as Homo sapiens)	−0.29	–	–
APLP2_452 (LVETHLAR; listed as Homo sapiens)	0.11	–	–
CALU_176 (FTAFLHPEEY; listed as Homo sapiens)	−0.01	–	–
CAP1_300 (FSAPKPQTSPSPKR; listed as Homo sapiens)	0.09	–	–
CCL2_28 (INAPVTCCYNFTNR; listed as Homo sapiens)	−0.11	–	–
CTSB_109 (WAFGAVEAIS; listed as Homo sapiens)	−0.08	–	–
DBN1_434 (APVEPATA; listed as Homo sapiens)	0.03	–	–
ECM1_38 (FQEVGYAAPPSPPLSR; listed as Homo sapiens)	−0.02	–	–
ECM1_44 (AAPPSPPLSR; listed as Homo sapiens)	−0.28	–	–
ECM1_108 (QEAVPLQK; listed as Homo sapiens)	−0.22	–	–
EEF1G_23 (QYSGAQVR; listed as Homo sapiens)	−0.12	–	–
EMSY_943 (QTVVQVLAVK; listed as Homo sapiens)	0.20	–	–
FLNC_2649 (FVGQKNSFTV; listed as Homo sapiens)	−0.06	–	–
FN1_35 ([code q]MVQPQSPVAVSQSKPGCY; not fully specified (residue 2); listed as Homo sapiens)	−0.09	–	–
FN1_99 (DKYTGNTYR; listed as Homo sapiens)	−0.08	–	–
FN1_607 (SSSGPVEVFIT; listed as Homo sapiens)	0.45	–	–
FN1_1693 (LQPTVEYVVSVYAQNPSG; listed as Homo sapiens)	−0.07	–	–
FN1_1780 (LQGLRPGSEYTVSVVALH; listed as Homo sapiens)	−0.34	–	–
FN1_1805 (LIGTQSTAIPAPT; listed as Homo sapiens)	0.71	–	–
FN1_2113 (FVTHPGY; listed as Homo sapiens)	−0.19	–	–
FOXG1_235 (LNKCFVKVPRHY; listed as Homo sapiens)	0.07	–	–
FSTL_1290 (LQKHQETA; listed as Homo sapiens)	−0.28	–	–
HEG1_224 (FQTKSGTAS; listed as Homo sapiens)	0.29	–	–

Substance	logFC.mEQ.over.Luc [1]	logFC.mEQ.over.Luc [2]	further results
KRT28_2 (SLQFSNGSR; listed as Homo sapiens)	−0.34	–	–
LOXL1_157 (SVSASAFASTYR; listed as Homo sapiens)	−0.19	–	–
LOX_60 (LGSQYQPQR; listed as Homo sapiens)	−0.34	–	–
QSOX1_558 (VAAAPELAMGALELESR; listed as Homo sapiens)	–	−0.19	–
SDC4_106 (LEENEVIPKR; listed as Homo sapiens)	–	−0.35	–
SERPINH1_27 (AAAPGTAEKLSPKAATLAER; listed as Homo sapiens)	–	−0.69	–
SMOC1_35 (LISDRDPQCNLHCSR; listed as Homo sapiens)	–	0.14	–
SRGN_51 (EEKGPMFELLPGESNKIPR; listed as Homo sapiens)	–	−0.13	–
SRGN_60 (LPGESNKIPR; listed as Homo sapiens)	–	0.32	–
SRGN_62 (GESNKIPR; listed as Homo sapiens)	–	−0.45	–
STC2_239 (HGEAGHHLPEPSSR; listed as Homo sapiens)	–	−0.11	–
STC2_244 (HHLPEPSSR; listed as Homo sapiens)	–	−0.26	–
TGFBI_24 (GPAKSPYQLVLQHSR; listed as Homo sapiens)	–	0.05	–
TGFBI_43 ([code q]HGPNVCAVQKVIGTNR; not fully specified; listed as Homo sapiens)	–	0.10	–
TGFBI_50 (AVQKVIGTNR; listed as Homo sapiens)	–	0.33	–
TGFBI_208 (GIVTVNCAR; listed as Homo sapiens)	–	0.30	–
TGFBI_497 (VLTPPMGTVMDVLKGDNR; not fully specified (residue 6); listed as Homo sapiens)	–	0.14	–
TGFBI_524 (SAGLTETLNR; listed as Homo sapiens)	–	0.18	–
TGFBI_534 (EGVYTVFAPTNEAFR; listed as Homo sapiens)	–	0.09	–
TG_1017 (GASALLR; listed as Homo sapiens)	–	1.03	–
THBS1_972 (QNDPNWVVR; listed as Homo sapiens)	–	−0.04	–
VASN_138 (HIQPGAFDTLDR; listed as Homo sapiens)	–	0.19	–
VASP_229 (AIAGAKLR; listed as Homo sapiens)	–	−0.08	–
VCAN_3367 (FKNSSSAK; listed as Homo sapiens)	–	–	logFC.mEQ.over.Luc (SMC2_TAILS HC, log fold change of N-terminal peptide, Ad-mADAMTS7 EQ over Luc): −0.72

Further lines, with some results ahead:

logFC.mEQ.over.Luc [1]	logFC.mEQ.over.Luc [2]	Substance	further results
−0.31	–	ACTG1_105 (LTEAPLNPKANR; listed as Homo sapiens)	–
0.00	–	ACTN4_5 (HAANQSYQYGPSSAGNGAGGGGSMG; listed as Homo sapiens)	–
4.60	–	ADNP2_375 (SQPVGPVNK; listed as Homo sapiens)	–
0.05	–	AMER2_654 (LAGTTIRATACH; listed as Homo sapiens)	–
−0.07	–	APOA1_86 (EQLGPVTQEFW; listed as Homo sapiens)	–
−0.06	–	BMPER_43 (LTGSVAKCENEG; listed as Homo sapiens)	–
−0.62	–	CEP192_728 (DKSTAGR; listed as Homo sapiens)	–
−0.02	–	DIS3L_75 (FPELKGIIFMQTACQAVQHQR; listed as Homo sapiens)	–
0.49	–	EIF4B_426 (QTGTSTTSSR; listed as Homo sapiens)	–
−0.15	–	FBLN2_665 (FSQVASNTIPLPLPQPNTCK; listed as Homo sapiens)	–
−1.45	–	FLNA_689 (VNKPAEFTV; listed as Homo sapiens)	–
0.25	–	HEG1_51 (GLELQLER; listed as Homo sapiens)	–
−0.14	–	KCND1_436 (RLAKSGTTNAFLQYKQNGGLE; listed as Homo sapiens)	–
−0.14	–	LASP1_182 (SYGGYKEPAAPVSIQR; listed as Homo sapiens)	–
0.11	–	LOX_125 (FQAGYSTSR; listed as Homo sapiens)	–
–	0.36	SPOCK1_126 (HWVGPSNLVK; listed as Homo sapiens)	–
–	−0.07	SRGN_50 (LEEKGPMFELLPGESNKIPR; listed as Homo sapiens)	–
–	−0.22	STC1_37 (QNSAEVVR; listed as Homo sapiens)	–
–	0.09	TGFBI_276 (TLLAPT[code n]EAFEKIPSETLNR; not fully specified; listed as Homo sapiens)	–
–	−0.17	TLN1_1501 (HTSALCNSCR; listed as Homo sapiens)	–
–	−0.30	TMEM132A_52 (LLDAPEHFR; listed as Homo sapiens)	–
